In PMC10684580, “Unexpected dynamics in femtomolar complexes of binding proteins with peptides” (Nature Communications, 2023):

Tests used:
N^AM4C [1] = test: NMR line-shape simulation, N^AM4C peptide titration (three-state); format: binding; conditions: three-state model, 310 K
Description: (§1) The peptides were dissolved in NMR buffer to generate 10 mM stocks that were titrated in 0.1 molar equivalents steps to 250 μM dArmRPs in NMR buffer up to 1.5 equivalents, and then in 0.5 equivalents steps up to 5.5 equivalents. For each step, a [^15N,^1H]-HSQC experiment was recorded at 310 K with the other parameters described above.
The change of line-shape and peak positions in the [^15N,^1H]-HSQC spectra upon adding (KR)n was simulated using in-house written Mathematica notebooks. In principle, for the simple two-state process of ligand binding, described only by single kon and koff rates and the concentrations used, the modified Bloch McConnell equations[49] can be used. […]
For simplicity, the same transverse relaxation rate R2 was assumed for all protein states and the chemical shift of the partially unbound state PL^* to be the same as for the free protein, that is ΩP . ΩPL is the chemical shift of the bound state and L the equilibrium concentration of the free peptide. […] Thereby the k1,on and k1,off rate constants were chosen such that their ratio was in the range of the measured or predicted Kd values[21] and that all signals during the titration could be fitted well (see text, Supplementary Fig. 12). […]

N^AM4C [2] = test: [15N,1H]-HSQC peptide titration, N^AM4C/NM4C; format: binding; conditions: 310 K, 250 μM dArmRP
Description: All experiments were recorded on Bruker Neo 600 or 700 MHz spectrometers, employing cryogenically cooled or Prodigy ^1H, ^13C, ^15N triple-resonance probes. Pulse field gradients with coherence selection[46] were applied to all heteronuclear ^15N,^1H experiments using standard Bruker pulse sequences, together with the Rance-Palmer method for sensitivity enhancement. All spectra were processed in TOPSPIN using cosine-bell-shifted window functions prior to Fourier transformation, and analyzed in CARA[48]. Chemical shift assignments were obtained from triple-resonance and HCCH-type 3D NMR experiments using the standard Bruker pulse-program library. […]
as §1
Assignments of the spectra required for CSPs were performed through segmental labeling as detailed in the Results section. […] CSPs were calculated using the following formula[50]9 δHf−δHb/1^2+δNf−δNb/4^2 where δH and δN represent the chemical shifts in the proton and nitrogen dimensions, respectively, while f and b represent the free and bound states, respectively. […]

[3] = target: N^AM4C designed Armadillo repeat protein (dArmRP) with the redesigned N^A (artificial) cap, four identical internal modules M and the C cap; test: NMR titration; [15N,1H]-HSQC chemical shift perturbations; 10 mM peptide stock titrated in 0.1 equivalent steps to 250 uM dArmRP in NMR buffer up to 1.5 equivalents, then 0.5 equivalent steps up to 5.5 equivalents; 310 K
[4] = target: N^AM4C designed Armadillo repeat protein (dArmRP) with the redesigned N^A (artificial) cap, four identical internal modules M and the C cap; test: NMR titration; line-shape simulation of traces from [15N,1H]-HSQC titrations; three-state model P + L = PL = PL*; parameters adjusted by visual inspection, k1,on and k1,off chosen so that their ratio fits the measured or predicted Kd
[5] = target: N^YM7C designed Armadillo repeat protein (dArmRP) with the N^Y cap, seven identical internal modules M and the C cap; test: NMR titration; [15N,1H]-HSQC chemical shift perturbations; 10 mM peptide stock titrated in 0.1 equivalent steps to 250 uM dArmRP in NMR buffer up to 1.5 equivalents, then 0.5 equivalent steps up to 5.5 equivalents; 310 K
[6] = target: N^AM7C designed Armadillo repeat protein (dArmRP) with the N^A cap, seven identical internal modules M and the C cap; test: NMR titration; line-shape simulation of traces from [15N,1H]-HSQC titrations; three-state model P + L = PL = PL*; parameters adjusted by visual inspection, k1,on and k1,off chosen so that their ratio fits the measured or predicted Kd
mCherry-tagged N^YM7C = test: FRET or BRET; FRET-based stopped-flow assay; 20 nM GFP-tagged peptide mixed 1:1 (volume) with 50-250 nM mCherry-tagged NM7C for kon; koff from competition: preincubated 50 nM tagged peptide and 40 nM tagged protein mixed 1:1 with 2 uM unlabeled competitor

(Lys-Arg)4 [(KR)4]
k2 (isomerization of bound state, PL to PL*) (N^AM4C [1]): 30 s^–1 | k2’ (PL* to PL) (N^AM4C [1]): 700 s^–1 | peptide required for full saturation (N^AM4C [2]): 1.3 equiv.

Ac-KRKRKRKR-OH [(KR)4 peptide, (Lys-Arg)4 octapeptide]
equivalents of peptide required for full saturation [3]: 1.3 equiv. | k1,off (step 1, overall unbinding; line-shape simulation parameter) [4]: 300 s^–1 | k1,on (step 1, overall binding; line-shape simulation parameter) [4]: 1e+09 M⁻¹ s⁻¹ | k2 (step 2, exchange in the bound state, PL to PL*) [4]: 30 s^–1 | k2’ (step 2, exchange in the bound state, PL* to PL) [4]: 700 s^–1

Ac-KRKRKRKRKRKRKR-OH [(KR)7 peptide]
equivalents of peptide required for full saturation [3]: 1 equiv. | equivalents of peptide required for full saturation [5]: 1 equiv. | k1,off (step 1, overall unbinding; line-shape simulation parameter) [6]: 0.0003 s^–1 | k1,on (step 1, overall binding; line-shape simulation parameter) [6]: 6.2e+08 M^–1·s^–1 | k2 (step 2, exchange in the bound state, PL to PL*) [6]: 30 s^–1 | k2’ (step 2, exchange in the bound state, PL* to PL) [6]: 100 s^–1

KRKRKRKR [GFP-tagged (KR)4 peptide]
koff (mCherry-tagged N^YM7C): 0.23 s⁻¹
